From article PMC12218847 (Nature Communications, 2025)
Blank lines part the entries; values can stand above or below the molecule they belong to.

Columns and labels:
[1] = target: His-tagged potato StISA1 (residues 48–793) (potato); assay: AUC
AUC = target: the molecule itself; assay: AUC

stoichiometry N [1]: 2
Molecule: His-tagged potato StISA1 (residues 48–793) (enzyme)

B1: Arabidopsis AtISA1 (residues 44–783) with C-terminal 6×His-tag (enzyme, UniProt O04196 44-783, looked up)
chain: AKDRRSNEAENIAVVEKPLKSDRFFISDGLPSPFGPTVRDDGVNFSVYSTNSVSATICLISLSDLRQNKVTEEIQLDPSRNRTGHVWHVFLRGDFKDMLYGYRFDGKFSPEEGHYYDSSNILLDPYAKAIISRDEFGVLGPDDNCWPQMACMVPTREEEFDWEGDMHLKLPQKDLVIYEMHVRGFTRHESSKIEFPGTYQGVAEKLDHLKELGINCIELMPCHEFNELEYYSYNTILGDHRVNFWGYSTIGFFSPMIRYASASSNNFAGRAINEFKILVKEAHKRGIEVIMDVVLNHTAEGNEKGPIFSFRGVDNSVYYMLAPKGEFYNYSGCGNTFNCNHPVVRQFILDCLRYWVTEMHVDGFRFDLGSIMSRSSSLWDAANVYGADVEGDLLTTGTPISCPPVIDMISNDPILRGVKLIAEAWDAGGLYQVGMFPHWGIWSEWNGKFRDVVRQFIKGTDGFSGAFAECLCGSPNLYQGGRKPWHSINFICAHDGFTLADLVTYNNKNNLANGEENNDGENHNYSWNCGEEGDFASISVKRLRKRQMRNFFVSLMVSQGVPMIYMGDEYGHTKGGNNNTYCHDNYMNYFRWDKKEEAHSDFFRFCRILIKFRDECESLGLNDFPTAKRLQWHGLAPEIPNWSETSRFVAFSLVDSVKKEIYVAFNTSHLATLVSLPNRPGYRWEPFVDTSKPSPYDCITPDLPERETAMKQYRHFLDANVYPMLSYSSIILLLSPIKDP
stoichiometry N (AUC): 2

B2: His-tagged OsISA1 (amino acids 55–803) (enzyme, Oryza sativa (rice), UniProt D0TZF0 55-803, looked up)
chain: SVASAVEVGVGEDEEEGVEEEEEEVEAVVMPERYALGGACRVLAGMPAPLGATALDGGVNFAVYSAGASAASLCLFTPDDLEADEVTEEVPLDPLFNRTGNVWHVFIEGELHNMLYGYRFDGMFAPHCGQYFDVSNVVVDPYAKAVISRGEYGVPGPGGDCWPQMAGMIPLPYSTFDWQGDLPLRYPQKDLVIYEMHLRGFTKHSSSNVEHPGTYIGAISKLDYLKELGVNCVELMPCHEFNELEYFSCSSKMNFWGYSTINFFSPMIRYSSGGIRNCGRDAINEFKTFVREAHKRGIEVIMDVVFNHTAEGNEKGPILSFRGIDNSTYYMLAPKGEFYNYSGCGNTFNCNHPVVREFIVDCLRYWVTEMHVDGFRFDLASIMTRGCSLWDPVNVYGSPVEGDMTTTGTPLATPPLIDMISNDPILGDVKLIAEAWDAGGLYQVGQFPHWKIWSEWNGKYRDIVRQFIKGTDGFAGGFAECLCGSPHLYQAGGRKPWHSINFVCAHDGFTLADLVTYNKKYNSSNGEDNRDGENHNLSWNCGEEGEFAGLSVKRLRKRQMRNFFVSLMVSQGVPMFYMGDEYGHTKGGNNNTYCHDHYVNYFRWDKKEESSDLQRFCSLMTKFRKQCESLGLADFPTAQRLHWHGHQPGKPDWSETSRFVAFSTKDETKGEIYVAFNASHLPAVVGLPERPGYRWEPLVDTGKPAPYDFLTDDLPDRAHAVHLFSHFLNSNLYPMLSYSSIILELQPDD
stoichiometry N (AUC): 2

B3: His-tagged maize ZmISA1 (residues 45–789) (enzyme, UniProt O22637 45-789, looked up)
chain: AAARPVAEAVQAEEDDDDDDEEVAEERFALGGACRVLAGMPAPLGATALRGGVNFAVYSSGASAASLCLFAPGDLKADRVTEEVPLDPLLNRTGNVWHVFIHGDQLHGMLYGYRFDGVFAPERGQYYDVSNVVVDPYAKAVVSRGEYGVPAPGGSCWPQMAGMIPLPYNKFDWQGDLPLGYHQKDLVIYEMHLRGFTKHNSSKTKHPGTYIGAVSKLDHLKELGVNCIELMPCHEFNELEYFSSSSKMNFWGYSTINFFSPMARYSSSGIRDSGCGAINEFKAFVREAHKRGIEVIMDVVFNHTAEGNEKGPILSFRGIDNSTYYMLAPKGEFYNYSGCGNTFNCNHPVVREFIVDCLRYWVTEMHVDGFRFDLASILTRGCSLWDPVNVYGSPMEGDMITTGTPLVAPPLIDMISNDPILGNVKLIAEAWDAGGLYQVGQFPHWNVWSEWNGKYRDTVRQFIKGTDGFAGAFAECLCGSPQLYQAGGRKPWHSINFVCAHDGFTLADLVTYNSKYNLSNGEDNRDGENHNLSWNCGEEGEFASLSVRRLRKRQMRNFFVCLMVSQGVPMFYMGDEYGHTKGGNNNTYCHDHYVNYFRWDKKEEQSSDLYRFCRLMTKFRKECESLGLEDFPTSERLKWHGHQPGKPDWSEASRFVAFTMKDETKGEIYVAFNTSHLPVVVGLPERSGFRWEPVVDTGKEAPYDFLTDGLPDRAVTVYQFSHFLNSNLYPMLSYSSIILVLRPDV
stoichiometry N (AUC): 2
